Measurements published in publication PMC9486893, “Protein Conformational Space at the Edge of Allostery: Turning a Nonallosteric Malate Dehydrogenase into an “Allosterized” Enzyme Using Evolution-Guided Punctual Mutations” (Molecular Biology and Evolution, 2022).
Positions count from the first letter of the chain named. Numbers in names are those of the source.

Legend:
[1] = molecular target: Archaeoglobus fulgidus malate dehydrogenase mutant 1 (R102Q) (Archaeoglobus fulgidus); assay: SEC-MALS; SEC-MALLS with refractometry; Enrich 650 column, 50 mM Tris-HCl pH 7.2, 50 mM NaCl, room temperature, 50 ul at ~1 mg/ml, 0.5 ml/min; self-association (dimer)
[2] = molecular target: Archaeoglobus fulgidus malate dehydrogenase mutant 3 (R102Q and P250I) (Archaeoglobus fulgidus); assay: as above
[3] = molecular target: Archaeoglobus fulgidus malate dehydrogenase mutant 2 (P250I) (Archaeoglobus fulgidus); assay: as above
[4] = substrate: CC(=O)C(=O)O; assay: purified protein; type: biochemical, Archaeoglobus fulgidus; conditions: 0.5 mM NADH, MES pH 6.0, 50 mM NaCl, 70 °C (340 K in Figure 3)
[5] = substrate: O=C(O)CC(=O)C(=O)O; assay: purified protein; type: biochemical, Archaeoglobus fulgidus; conditions: 0.5 mM NADH, 50 mM potassium phosphate pH 7.0, 50 mM NaCl
[6] = molecular target: the molecule itself; assay: SEC-MALS; SEC-MALLS with refractometry; Enrich 650 column, 50 mM Tris-HCl pH 7.2, 50 mM NaCl, room temperature, 50 ul at ~1 mg/ml, 0.5 ml/min; self-association (dimer)
[7] = mutant 3, sigmoid (homotropic activation)
[8] = 70 °C (340 K in Figure 3), substrate inhibition at excess OAA
[9] = 70 °C (340 K in Figure 3), mutant 2, hyperbolic, text b25 gives 1.31 mM

In the case of “Archaeoglobus fulgidus malate dehydrogenase mutant 1 (R102Q) (enzyme)”, the stoichiometry N [1] is reported as 2.

With “Archaeoglobus fulgidus malate dehydrogenase mutant 3 (R102Q and P250I) (enzyme)” the stoichiometry N [2] was 2.

“Archaeoglobus fulgidus malate dehydrogenase mutant 2 (P250I) (enzyme)” showed a stoichiometry N [3] of 2.

B1: Wt A. fulgidus MalDH (Archaeoglobus fulgidus DSM 4304; P216I/R81Q) (protein)
chain: MKLGFVGAGRVGSTSAFTCLLNLDVDEIALVDIAEDLAVGEAMDLAHAAAGIDKYPKIVGGADYSLLKGSEIIVVTAGLAQKPGMTRLDLAHKNAGIIKDIAKKIVENAPESKILVVTNPMDVMTYIMWKESGKPRNEVFGMGNQLDSQRLKERLYNAGARNIRRAWIIGEHGDSMFVAKSLADFDGEVDWEAVENDVRFVAAEVIKRKGATIFGIAVAIYRMVKAVVEDTGEIIPTSMILQGEYGIENVAVGVPAKLGKNGAEVADIKLSDEEIEKLRNSAKILRERLEELGY
notes: full-length, codon-optimized synthetic gene in pET-20a (NdeI/BamHI), E. coli BL21 DE3 pLysS; no tag mentioned; homodimer, theoretical 72 kDa (SEC-MALLS 62-65 kDa)
In the case of B1, the K0.5 [4, 7] is reported as 100 mM, the kcat [4, 7] is reported as 21 s⁻¹ and the kcat/Km [4, 7] is reported as 210 M⁻¹ s⁻¹.

B2: Wild-type Archaeoglobus fulgidus malate dehydrogenase (enzyme)
chain: B1 chain with Q81R, I216P
notes: synthetic gene codon-optimised for E. coli, in pET-20a (NdeI/BamHI); No tag is mentioned; purification was by heat treatment, ion exchange and gel filtration; Homodimer; also called Wt A. fulgidus MalDH; Wt enzyme; source: E. coli BL21 DE3 pLysS, purified (70 °C heat step, Q sepharose, gel filtration)
B2 was tested, and the K0.5 [5, 8] was 0.1 mM, the kcat [5, 8] was 417 s⁻¹ and the kcat/Km [5, 8] was 4.3e+06 M⁻¹ s⁻¹. For the same molecule, the “stoichiometry N” value [6] was 2.

B3: Wt A. fulgidus MalDH (Archaeoglobus fulgidus DSM 4304; R81Q) (protein)
chain: B1 chain with I216P
notes: as for B1
In the case of B3, the K0.5 ([5]; 70 °C, mutant 1, pH 7.0) is reported as 14 mM, the kcat ([5]; 70 °C, mutant 1, pH 7.0) is reported as 12 s⁻¹ and the kcat/Km ([5]; 70 °C, mutant 1, pH 7.0) is reported as 900 M⁻¹ s⁻¹. It also gave a K0.5 ([4]; mutant 1, pH 6.0) of 5.6 mM, a kcat ([4]; mutant 1, pH 6.0) of 40 s⁻¹ and a kcat/Km ([4]; mutant 1, pH 6.0) of 7100 M⁻¹ s⁻¹.

B4: Wt A. fulgidus MalDH (Archaeoglobus fulgidus DSM 4304; P216I) (protein)
chain: B1 chain with Q81R
notes: as for B1
Work on B4 yielded a K0.5 [5, 9] of 1.3 mM, a kcat [5, 9] of 175 s⁻¹ and a kcat/Km [5, 9] of 130000 M⁻¹ s⁻¹.
